Results as given in the DeepSol protein solubility set.

Experiment: soluble on expression in E. coli; label from the status in PepcDB or PDB records

Soluble on expression in E. coli, soluble:
MDKESVDTLFGMGLTAYQAKDYTKAIHALEHLREHDPSYTTLYSYLAKSYEENGEPEKAIAVLRDGLTQDEFNKEMFLEAGKLAVTLRLPEEAEEFYRQAIVLDEEFSEAIMQLNKLLLAKENYEGVIELVEGLGEEVISEPQIFWDVSVAYQETEQYNKAKANYELAYPHFTNNPTFLKEYGLFLREEGEHAKSQEVLRSYLELEPEDTEILSLFDLEHHHHHH
MFKEVGEPNFPKLEEEVLAFWKREKIFQKSVENRKGGPRYTVYEGPPTANGLPHVGHAQARSYKDLFPRYKTMRGYYAPRRAGWDTHGLPVELEVEKKLGLKSKREIEAYGIERFNQACRESVFTYEKEWEAFTERIAYWVDLENAYATLEPTYIESIWWSLKNLFDRGLLYRDHKVVPYCPRCGTPLSSHEVALGYKEIQDPSVYVRFPLKEPKKLGLEKASLLIWTTTPWTLPGNVAAAVHPEYTYAAFQVGDEALILEEGLGRKLLGEGTPVLKTFPGKALEGLPYTPPYPQALEKGYFVVLADYVSQEDGTGIVHQAPAFGAEDLETARVYGLPLLKTVDEEGKLLVEPFKGLYFREANRAILRDLRGRGLLFKEESYLHSYPHCWRCSTPLMYYATESWFIKNTLFKDELIRKNQEIHWVPPHIKEGRYGEWLKNLVDWALSRNRYWGTPLPIWVCQACGKEEAIGSFQELKARATKPLPEPFDPHRPYVDQVELACACGGTMRRVPYVIDVWYDSGAMPFASLHYPFEHEEVFRESFPADFIAEGIDQTRGWFNFLHQLGVMLFGSIAFKNVICHGLILYEMGQKMSKSKGNVVDPWDIIREFGADALRWYIYVSAPPEADRRFGPNLVRETVRDYFLTLWNVYSFFVTYANLDRPDLKNPPPPEKRPEMDRWLLARMQDLIQRVTEALEAYDPTTSARALRDFVVEDLSQWYVRRNRRRFWKNEDALDREAAYATLYEALVLVATLAAPFTPFLAEVLWQNLVRSVRPEAKESVHLADWPEADPALADEALVAQMRAVLKVVDLARAARAKSGVKTRTPLPLLLVTAPTALEREGLKRFAHEIAEELNVKEVRVLEPGEEILSYRVLPNLKLLGRKYGKLVPKIREALQRERERAAALALKGEAIPLEVEGEALTLLPEEVLLEAEAPKGYQALEKDGYVAALKVEVTEALRMEGLARDLIRLLQQARKDMGLKVSDRIRVGYEAEGPYLEALKRHGPWIAEEVLATAFGEGLFGGFEARVEDEEGKAVFHLARAE
MISSIRLDLFRTKVFVMPLKFPLSICLLGTFLVTSAQAQEAVKGVVELFTSQGCASCPPADEALRKMIQKGDVVGLSYHVDYWNYLGWTDSLASKENTERQYGYMRALGRNGVYTPQAILNGRDHVKGADVRGIYDRLDAFKREGQGLNVPVSSKFAGDEVEIDIGAGNGKADVVVAYFTREQTVDVQKGENQGKKMSYWHSVYDVQTVGMWDGSPMTVKLPASVVAKVKKGGCAVLLQTANASGDPAAIVGASILLGNETQLEHHHHHH
MSLSQLFIVYLGGSAPKANIELHDVQFVIADNIEGTYEQLRQNWFGTVKDLHLDSYKAVKGADGYQISIQDKPQNSDKKLYFVNLGGYDASKLNELHEFALFVAADNTEAKEKAKQSLLKNSLHQHKDNLMEVDDCLELSKVDGKYIHLTPSDKEYDLKPYWFGYRVIGEGHHHHHH
MEVYMKKLINDKNNIVEEVVQGMIKAFPNKVSRVENEPIIIRKNKKVNKVALISGGGSGHEPAHAGYVGYGMLDAAVCGEIFTSPGADKVYSAIKAVDAGKGVLLIIKNYSGDVMNFEMAGEMAQAEGITVKQVVVDDDIAVENSTYTVGRRGIAGTIFVHKILGAAAEKGYDLDKLVELGNKVVKNLKTMGMSLKPCTVFTTGKESFEIADDEVEIGLGIHGEPGTHREKMTTANEFTKKLFEKIYAESNVQNGDRFAVLVNGLGETTLIELFIINNHLQDLLKDKRIEVAKTLVGNYMTSLDMGGFSISLLKLDKEMEELLNAEEDTIAFLEHHHHHH

Soluble on expression in E. coli, not soluble:
MGSDKIHHHHHHMTYDFLIIGGGIAGTSAGAALSRLGTTCLLEAESALAYHASGRSAALFEPNYGHPVTVDLSHASATALRTLGGGVLSPRGLLILAGPGEDAALARDIKTMDLAEISIADAQDMIPILNADHITRAAHHAAAWDIDTDRMVQHYARQIRTNGAVETGATVLGLTKTPQGWTVETRDHSFHARIIVNAAGAWADDIARMAGIAPIGLTPKRRSMARMPAPRGHDVSAWPMIIGAGESWYAKPDAGAWLVSPAEEDPAAPHDAYADDMVLAEGIARYQPFVTEEVTRVTSSWAGLRTFAPDRCLVIGPDRTDPSVLWFAGQGGYGFQTAPAASQLLADLVSGAPSTLDPATVKALSPSRF
MMCSTVISQLGFECHPIGKTLRIISPFTYCDDGEHVGAFIREVNGRYLVSDRCDALMNMEARGISLTKKRLDEIRQLLLKEGAELNARGEIIAWATEKDVGAITSNIIRAGILASTLSLDWYQPVQAEKFESMVIDYLYHTELRDALSLRENVYGLSGHQITVPVTIKTDIPKYVFTSSVKHGGSWNSAYSLLGKLIDLKASSEEYNNRFVVIDSEAIGDQMQQLSLLFHESSQVLPFSKRETWVKRLAA
MSLNPPYTIVFALYPGVTQLDFTGPLEFLSKLPHARCVLASSRGEDIRADGGIVFADIARLGAIERCDLLLVPGGLGTIEAMEDAELLAQLRRLAASADYVSSVCTGSLLLGAAGLLKGRRAACHWAWLDSLAAFGAQPCPDRVVVDGKLISGGGVTAGIDMALTLMAEIAGPQFAQTAQLTLEYAEGHHHHHH
GPGSMFYKMKLERNIKVEPHLLERTLHRHLEEYLRKAVEGTPLHLSLGNALRSGLARTNQNSSAVIIAVLDILNTSSLEGRVLDDGSVSFFVKYEGLVFKLHRGEVIDVIVSSVEREGWWGDVMGVGRMYISRGQMGNEWVYESDGMRGIWITKDGARSVKEGEIVRVRVVAETPQSEGVLAVGSMVGNYLGPL
MRDNKELTESKLHLDEFSAYLMSIDKSDSTIKTYIEHIQAFAKWFEETNCIDFDPAVITEIDIRDMRSYLQGTRHLKETTINLRLASLKCYFSFLESEKYIKHNPARNIRKIKLQSPNIAKSLDEQTYRALRRHVYRGGNKAHIAMFEIFTRCGVRNFELINIRLTDFDISDRKGTLKIVGKLNKVRYIPLHKDVRDAINNWMEIRKNIKTEYDNLFISERKTPYTRSGIWKIFKKYCEQIGITDVTIHSFRHYFCRTLLKNGVDISVVAKLAGHSSGFVTAQVYTIPRQEELEAAIETLV
MKKEVTEISSYDATNLVFYVNGKRVEEKDVDPKMTLATYLRDKLKLTGTKIGCNEGGCGACTIMISHIENGEIKHFSANSCLMPVCGVFGKAVTTVEGIGSVAKNRLHPVQERLAKAHGSQCGFCTPGFVMAMYALLRNNPNPTISDINLGLQGNLCRCTGYRPILEAFYSFAVDESGTLKVTEENGCGMGENCCKVKKTACGGSDETTPGYTGGERKRKIQLSDMSDCKPYDPTQELIFPPELKLHGYESMSFAYDHHHTKWYQPVSYDDLLSLKRELPHARLISGNSELAIELKFRFIDLPAVINPRQVKVLHEKHLENDGVYMGTGMSLTDMDNYSVQLMKDLPREQTAVLKHVHEMLHWFAGIHVRNVASVAGNIATASPISDLNPIWMASNALVVLDSEARGEKRVHIDEKFFLGYRKTVIQQDEIIKAVIVPLLEENEHFAAYKQAQRREDDIAIVTGAFLVKLDPKTLVVEKIRISYGGMAPTTKLALTTMEKLIGEKWSQTFLDKALGLLSDELKLPAGVPGGMSQYRLSLALSFFFKFFLGVSKKLELTEIKYVDADVKIGQNVPETLYATQLYQEVKANQPAHDPLGRPIKHVSGDKHTTGEAVYCDDINVADCNHIAFVLSPIAHGTLNSIDYTAALEIDGVVGTIDASDVTTGAQMGHHSDTPVFVKETITFHGQPIAAIVATDHEIARKAASLVKLDYSVEKPIVTIKQALEAESFVFKHFVIHSSLNDNEQVIKSDWSKYDRIVEGSIDMGGQEHFYLETQQCIVIPHEDDELEIIISNQCVNDVQIEVAKCLGMAQHKISTKVKRIGGGFGGKESTGAILAVPASLAAKKFGRPMKFKFERFDDMAITGTRHPFTLQYKLAVDENGKFLDLDYTALSNSGHTIDLSMGVMQRAMVHADNVYKFENADITGKMCKTNLASNTAFRGFGGPQGMFGTEIMVKHVAEKFGFNHDEVRVKNFYKEGDCTPFGMHLNQCNVTRTWDECRKNSDYDNRLEEVKKFNDSNKFRKRGIYLTPTRFGIGFGLKQLNQAGALVLVYTDGSVLVSHGGMEMGQGLHTKILQIAARCLEIPIERIHIHDTSTDKVPNASATAASVGSDMNGLAVQDACRQINERLERFKKLDPNGTWDDWVKAAYVDRVSLSASGFGIIHHEPVDFFNGKGAELFGYSVYGTACCEVEIDCLTGDHHLLRTDIVMDVGESLNPAIDIGQIEGAFIQGYGLFTMEEIKIRPDGIRLTRGPGNYKIPSADDAPRHFNVSLLGNSSNKMGIFSSKAIGEPPLFLGSCAFFAIREAVRAYRIQNGNADYFVFHSPATPERIRMACEDFVTSHVPELPEEGTYTPWITSV
LDSKTLARRVLVAQMLATANNVYPTSQTFREKLANLYGAQFSTCISKKGKVHIVDIDISFVSDKFILEGKSILGEIIHFLRAALFKPLISVEHYQSKSFDLEKEN
GPGSMPLERSFIDPGHASMGYEAGLIPRLRRDSIVRGVLEENEDMLREIDLLRDTVTKQAQELFTATKRIHVLESRLARLEGAEDASHERTDDSDNVEEVTSVDKAGILRSIFRAISSCQFGDRHTRIRAYKQGLVRKSAEKARDFGEKSEKKSELPGKEQQDFLGHAFHESNKRLDEVSSLLQSYRKTPSFLVSAYDELVIDCMMEIIRLSKKMNLMTVGDFGALAD
MSLSQLVLILGDQLSPSIAALDGVDKKQDTIVLCEVMAEASYVGHHKKKIAFIFSAMRHFAEELRGEGYRVRYTRIDDADNAGSFTGEVKRAIDDLTPSRICVTEPGEWRVRSEMDGFAGAFGIQVDIRSDRRFLSSHGEFRNWAAGRKSLTMEYFYREMRRKTGLLMNGEQPVGGRWNFDAENRQPARPDLLRPKHPVFAPDKITKEVIDTVERLFPDNFGKLENFGFAEGHHHHHH
MGHHHHHHSHGGSRTGPVSLQGDPKQAPWSSSQSNSSRKTLFLSLCPPFPTQPQIHLHFTEHRASSHQGGPFKLQICLSSLYSNLLLHCHYREVHHMSGHRTESAGGHLFLPQDLRWKSPGLGVFAVQSVYELARRHNVSPFYSGPP
MGHHHHHHSHAKGKSAGLVKATGRNMEQFQVSVSVAPNAKITFELVYEELLKRRLGVYELLLKVRPQQLVKHLQMDIHIFEPQGISFLETESTFMTNQLVDALTTWQNKTKAHIRFKPTLSQQQKSPEQQETVLDGNLIIRYDVDRAISGGSIQIENGYFVHYFAPEGLTTMPKNVVFVIDKSGSMSGRKIQQTREALIKILDDLSPRDQFNLIVFSTEATQWRPSLVPASAENVNKARSFAAGIQALGGTNINDAMLMAVQLLDSSNQEERLPEGSVSLIILLTDGDPTVGETNPR
RGSGWFAGFPVYSWFFGRDGLWMALAANMVGLAGLTYEHTNMLLKYSDDGRIPHEIGLADDGDQGYTIGETKFNTMYMSIDSSPLWLLASASMENWDRSRFEERHLKKVFDFIASCDTDGDGLIENDFRRGLIGWPETWANIRNGKTVDVNALWIEVLRIFGYRFGYDEYQKIRDRYMSTFFAGANSVDFVDMEYHEIRSAMQFVPGIFMRNEAIRSRIKDLSAGMMTPWGIRSMSVYDPMYDGGYHTGTVWPLMTGWFVIAAYKNGLPDLAFNQMRTFVDLAFSADDPGRINETYDAMMPQPTGQFAQGWSSSMLLLSVLQGMLNIDPLS
